Data taken from the supplement of paper PMC5998384.

How the values were obtained:
HeLa Kyoto [1] = experiment: solubility in G1/S (NP-40 vs SDS abundance) (log2 ratio); higher = more soluble; details: cell cycle stage: G1/S
HeLa Kyoto [2] = experiment: solubility change mitosis vs G1/S (difference of NP-40 vs SDS log2 ratios) (log2 ratio difference); higher = more soluble in mitosis
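Wherever solubility change mitosis vs G1/S (difference of NP-40 vs SDS log2 ratios) is given: synchronized HeLa Kyoto cells (double thymidine block for G1/S, nocodazole release for mitosis), protein amounts in NP-40 versus SDS lysates quantified by mass spectrometry, three biological replicates.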
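Wherever solubility in G1/S (NP-40 vs SDS abundance) is given: HeLa Kyoto cells arrested at G1/S by double thymidine block, proteins quantified by TMT10plex mass spectrometry in mild NP-40 versus SDS extracts, three biological replicates.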

Sequence | solubility in G1/S (log2) (HeLa Kyoto [1]) | solubility change mitosis (log2) (HeLa Kyoto [2])
MEDKRNIQIIEWEHLDKKKFYVFGVAMTMMIRVSVYPFTLIRTRLQVQKGKSLYHGTFDAFIKILRADGITGLYRGFLVNTFTLISGQCYVTTYELTRKFVADYSQSNTVKSLVAGGSASLVAQSITVPIDVVSQHLMMQRKGEKMGRFQVRGNPEGQGVVAFGQTKDIIRQILQADGLRGFYRGYVASLLTYIPNSAVWWPFYHFYAEQLSYLCPKECPHIVFQAVSGPLAAATASILTNPMDVIRTRVQVEGKNSIILTFRQLMAEEGPWGLMKGLSARIISATPSTIVIVVGYESLKKLSLRPELVDSRHW [SLC25A44] | -0.146 | -0.117
MEEGNNNEEVIHLNNFHCHRGQEWINLRDGPITISDSSDEERIPMLVTPAPQQHEEEDLDDDVILTEDDSEDDYGEFLDLGPPGISEFTKPSGQTEREPKPGPSHNQAANDIVNPRSEQKVIILEEGSLLYTESDPLETQNQSSEDSETELLSNLGESAALADDQAIEEDCWLDHPYFQSLNQQPREITNQVVPQERQPEAELGRLLFQHEFPGPAFPRPEPQQGGISGPSSPQPAHPLGEFEDQQLASDDEEPGPAFPMQESQEPNLENIWGQEAAEVDQELVELLVKETEARFPDVANGFIEEIIHFKNYYDLNVLCNFLLENPDYPKREDRIIINPSSSLLASQDETKLPKIDFFDYSKLTPLDQRCFIQAADLLMADFKVLSSQDIKWALHELKGHYAITRKALSDAIKKWQELSPETSGKRKKRKQMNQYSYIDFKFEQGDIKIEKRMFFLENKRRHCRSYDRRALLPAVQQEQEFYEQKIKEMAEHEDFLLALQMNEEQYQKDGQLIECRCCYGEFPFEELTQCADAHLFCKECLIRYAQEAVFGSGKLELSCMEGSCTCSFPTSELEKVLPQTILYKYYERKAEEEVAAAYADELVRCPSCSFPALLDSDVKRFSCPNPHCRKETCRKCQGLWKEHNGLTCEELAEKDDIKYRTSIEEKMTAARIRKCHKCGTGLIKSEGCNRMSCRCGAQMCYLCRVSINGYDHFCQHPRSPGAPCQECSRCSLWTDPTEDDEKLIEEIQKEAEEEQKRKNGENTFKRIGPPLEKPVEKVQRVEALPRPVPQNLPQPQMPPYAFAHPPFPLPPVRPVFNNFPLNMGPIPAPYVPPLPNVRVNYDFGPIHMPLEHNLPMHFGPQPRHRF [RNF216] | -0.195 | -0.122
MEGAAAREARGTETPRASAPPPAPSEPPAAPRARPRLVFRTQLAHGSPTGKIEGFTNVRELYAKIAEAFGIAPTEILFCTLNSHKVDMQKLLGGQIGLEDFIFAHVRGETKEVEVTKTEDALGLTITDNGAGYAFIKRIKEGSIINRIEAVCVGDSIEAINDHSIVGCRHYEVAKMLRELPKSQPFTLRLVQPKRAFDMIGQRSRSSKCPVEAKVTSGRETLRLRSGGAATVEEAPSEFEEEASRKVDDLLESYMGIRDPELASTMVETSKKTASAQEFARCLDSVLGEFAFPDEFVVEVWAAIGEAREACG [GIPC3] | 0.0786 | -0.0196
MEGDGVPWGSEPVSGPGPGGGGMIRELCRGFGRYRRYLGRLRQNLRETQKFFRDIKCSHNHTCLSSLTGGGGAERGPAGDVAETGLQAGQLSCISFPPKEEKYLQQIVDCLPCILILGQDCNVKCQLLNLLLGVQVLPTTKLGSEESCKLRRLRFTYGTQTRVSLALPGQYELVHTLVAHQGNWETIPEEDLEVQENNEDAAHVLAELEVTMHHALLQEVDVVVAPCQGLRPTVDVLGDLVNDFLPVITYALHKDELSERDEQELQEIRKYFSFPVFFFKVPKLGSEIIDSSTRRMESERSPLYRQLIDLGYLSSSHWNCGAPGQDTKAQSMLVEQSEKLRHLSTFSHQVLQTRLVDAAKALNLVHCHCLDIFINQAFDMQRDLQITPKRLEYTRKKENELYESLMNIANRKQEEMKDMIVETLNTMKEELLDDATNMEFKDVIVPENGEPVGTREIKCCIRQIQELIISRLNQAVANKLISSVDYLRESFVGTLERCLQSLEKSQDVSVHITSNYLKQILNAAYHVEVTFHSGSSVTRMLWEQIKQIIQRITWVSPPAITLEWKRKVAQEAIESLSASKLAKSICSQFRTRLNSSHEAFAASLRQLEAGHSGRLEKTEDLWLRVRKDHAPRLARLSLESCSLQDVLLHRKPKLGQELGRGQYGVVYLCDNWGGHFPCALKSVVPPDEKHWNDLALEFHYMRSLPKHERLVDLHGSVIDYNYGGGSSIAVLLIMERLHRDLYTGLKAGLTLETRLQIALDVVEGIRFLHSQGLVHRDIKLKNVLLDKQNRAKITDLGFCKPEAMMSGSIVGTPIHMAPELFTGKYDNSVDVYAFGILFWYICSGSVKLPEAFERCASKDHLWNNVRRGARPERLPVFDEECWQLMEACWDGDPLKRPLLGIVQPMLQGIMNRLCKSNSEQPNRGLDDST [DSTYK] | 0.0887 | -0.242
MEGVELKEEWQDEDFPIPLPEDDSIEADILAITGPEDQPGSLEVNGNKVRKKLMAPDISLTLDPSDGSVLSDDLDESGEIDLDGLDTPSENSNEFEWEDDLPKPKTTEVIRKGSITEYTAAEEKEDGRRWRMFRIGEQDHRVDMKAIEPYKKVISHGGYYGDGLNAIVVFAVCFMPESSQPNYRYLMDNLFKYVIGTLELLVAENYMIVYLNGATTRRKMPSLGWLRKCYQQIDRRLRKNLKSLIIVHPSWFIRTLLAVTRPFISSKFSQKIRYVFNLAELAELVPMEYVGIPECIKQVDQELNGKQDEPKNEQ [BNIP2] | 0.0256 | -0.366
MEKYHVLEMIGEGSFGRVYKGRRKYSAQVVALKFIPKLGRSEKELRNLQREIEIMRGLRHPNIVHMLDSFETDKEVVVVTDYAEGELFQILEDDGKLPEDQVQAIAAQLVSALYYLHSHRILHRDMKPQNILLAKGGGIKLCDFGFARAMSTNTMVLTSIKGTPLYMSPELVEERPYDHTADLWSVGCILYELAVGTPPFYATSIFQLVSLILKDPVRWPSTISPCFKNFLQGLLTKDPRQRLSWPDLLYHPFIAGHVTIITEPAGPDLGTPFTSRLPPELQVLKDEQAHRLAPKGNQSRILTQAYKRMAEEAMQKKHQNTGPALEQEDKTSKVAPGTAPLPRLGATPQESSLLAGILASELKSSWAKSGTGEVPSAPRENRTTPDCERAFPEERPEVLGQRSTDVVDLENEEPDSDNEWQHLLETTEPVPIQLKAPLTLLCNPDFCQRIQSQLHEAGGQILKGILEGASHILPAFRVLSSLLSSCSDSVALYSFCREAGLPGLLLSLLRHSQESNSLQQQSWYGTFLQDLMAVIQAYFACTFNLERSQTSDSLQVFQEAANLFLDLLGKLLAQPDDSEQTLRRDSLMCFTVLCEAMDGNSRAISKAFYSSLLTTQQVVLDGLLHGLTVPQLPVHTPQGAPQVSQPLREQSEDIPGAISSALAAICTAPVGLPDCWDAKEQVCWHLANQLTEDSSQLRPSLISGLQHPILCLHLLKVLYSCCLVSEGLCRLLGQEPLALESLFMLIQGKVKVVDWEESTEVTLYFLSLLVFRLQNLPCGMEKLGSDVATLFTHSHVVSLVSAAACLLGQLGQQGVTFDLQPMEWMAAATHALSAPAEVRLTPPGSCGFYDGLLILLLQLLTEQGKASLIRDMSSSEMWTVLWHRFSMVLRLPEEASAQEGELSLSSPPSPEPDWTLISPQGMAALLSLAMATFTQEPQLCLSCLSQHGSILMSILKHLLCPSFLNQLRQAPHGSEFLPVVVLSVCQLLCFPFALDMDADLLIGVLADLRDSEVAAHLLQVCCYHLPLMQVELPISLLTRLALMDPTSLNQFVNTVSASPRTIVSFLSVALLSDQPLLTSDLLSLLAHTARVLSPSHLSFIQELLAGSDESYRPLRSLLGHPENSVRAHTYRLLGHLLQHSMALRGALQSQSGLLSLLLLGLGDKDPVVRCSASFAVGNAAYQAGPLGPALAAAVPSMTQLLGDPQAGIRRNVASALGNLGPEGLGEELLQCEVPQRLLEMACGDPQPNVKEAALIALRSLQQEPGIHQVLVSLGASEKLSLLSLGNQSLPHSSPRPASAKHCRKLIHLLRPAHSM [STK36] | -0.178 | 0.092
MEKYVRLQKIGEGSFGKAILVKSTEDGRQYVIKEINISRMSSKEREESRREVAVLANMKHPNIVQYRESFEENGSLYIVMDYCEGGDLFKRINAQKGVLFQEDQILDWFVQICLALKHVHDRKILHRDIKSQNIFLTKDGTVQLGDFGIARVLNSTVELARTCIGTPYYLSPEICENKPYNNKSDIWALGCVLYELCTLKHAFEAGSMKNLVLKIISGSFPPVSLHYSYDLRSLVSQLFKRNPRDRPSVNSILEKGFIAKRIEKFLSPQLIAEEFCLKTFSKFGSQPIPAKRPASGQNSISVMPAQKITKPAAKYGIPLAYKKYGDKKLHEKKPLQKHKQAHQTPEKRVNTGEERRKISEEAARKRRLEFIEKEKKQKDQIISLMKAEQMKRQEKERLERINRAREQGWRNVLSAGGSGEVKAPFLGSGGTIAPSSFSSRGQYEHYHAIFDQMQQQRAEDNEAKWKREIYGRGLPERGILPGVRPGFPYGAAGHHHFPDADDIRKTLKRLKAVSKQANANRQKGQLAVERAKQVEEFLQRKREAMQNKARAEGHMVYLARLRQIRLQNFNERQQIKAKLRGEKKEANHSEGQEGSEEADMRRKKIESLKAHANARAAVLKEQLERKRKEAYEREKKVWEEHLVAKGVKSSDVSPPLGQHETGGSPSKQQMRSVISVTSALKEVGVDSSLTDTRETSEEMQKTNNAISSKREILRRLNENLKAQEDEKGKQNLSDTFEINVHEDAKEHEKEKSVSSDRKKWEAGGQLVIPLDELTLDTSFSTTERHTVGEVIKLGPNGSPRRAWGKSPTDSVLKILGEAELQLQTELLENTTIRSEISPEGEKYKPLITGEKKVQCISHEINPSAIVDSPVETKSPEFSEASPQMSLKLEGNLEEPDDLETEILQEPSGTNKDESLPCTITDVWISEEKETKETQSADRITIQENEVSEDGVSSTVDQLSDIHIEPGTNDSQHSKCDVDKSVQPEPFFHKVVHSEHLNLVPQVQSVQCSPEESFAFRSHSHLPPKNKNKNSLLIGLSTGLFDANNPKMLRTCSLPDLSKLFRTLMDVPTVGDVRQDNLEIDEIEDENIKEGPSDSEDIVFEETDTDLQELQASMEQLLREQPGEEYSEEEESVLKNSDVEPTANGTDVADEDDNPSSESALNEEWHSDNSDGEIASECECDSVFNHLEELRLHLEQEMGFEKFFEVYEKIKAIHEDEDENIEICSKIVQNILGNEHQHLYAKILHLVMADGAYQEDNDE [NEK1] | -0.156 | -0.0529
MELAQEARELGCWAVEEMGVPVAARAPESTLRRLCLGQGADIWAYILQHVHSQRTVKKIRGNLLWYGHQDSPQVRRKLELEAAVTRLRAEIQELDQSLELMERDTEAQDTAMEQARQHTQDTQRRALLLRAQAGAMRRQQHTLRDPMQRLQNQLRRLQDMERKAKVDVTFGSLTSAALGLEPVVLRDVRTACTLRAQFLQNLLLPQAKRGSLPTPHDDHFGTSYQQWLSSVETLLTNHPPGHVLAALEHLAAEREAEIRSLCSGDGLGDTEISRPQAPDQSDSSQTLPSMVHLIQEGWRTVGVLVSQRSTLLKERQVLTQRLQGLVEEVERRVLGSSERQVLILGLRRCCLWTELKALHDQSQELQDAAGHRQLLLRELQAKQQRILHWRQLVEETQEQVRLLIKGNSASKTRLCRSPGEVLALVQRKVVPTFEAVAPQSRELLRCLEEEVRHLPHILLGTLLRHRPGELKPLPTVLPSIHQLHPASPRGSSFIALSHKLGLPPGKASELLLPAAASLRQDLLLLQDQRSLWCWDLLHMKTSLPPGLPTQELLQIQASQEKQQKENLGQALKRLEKLLKQALERIPELQGIVGDWWEQPGQAALSEELCQGLSLPQWRLRWVQAQGALQKLCS [HAUS5] | 0.307 | -0.0591
